We go through 21 sequences from a protein production outcome set (Wang et al. 2014).

The data set can be described thus: label from the status in PepcDB records.
As to “MSLSYRIDVLLFNKFETLDVFGPVEIFGNLQDDFELNFISSDGGLVESSQKVRVETSLYTRDENIEKILFVPGGSGTREKVNDDNFINFIGNMVKESKYIISVCTGSALLSKAGILNGKRATTNKRSFKWVTEQNEDVLWVKEARWVKDGNIYTSSGVSAGIDMTLGFIEDLIGKEKALEISRSIEYFWNEDSNYDPFSKIYGEGHHHHHH”, the protein production result was “not failed”.

Take “MSLTASDDLPGVLIVEDGRLAAATLRIQLESLGYDVLGVFDNGEEAVRCAPDLRPDIALVDIMLCGALDGVETAARLAAGCNLPIIFITSSQDVETFQRAKRVNPFGYLAKPVAADTLHRSIEMAIHKKKLEEGHHHHHH”: the protein production result is “not failed”.

In the case of “MSLTLDELDSHLFKCADIIRDAVDPTDYKEYILPLVFYKAISDEYEQEREEIVEEYGEDFADNANLYDVPIVPEGHRWNDLRQESENVDEAINNAFTEFTQANPDLSGIFNANFMEAGGLTDDRLIKLVEHLSTYDLDRDSVPPDMLGEAYMDLVRHFAEEEGKSGGQFFTPPHIVQLCVRLVDDFADGMTFHDPTVGSGGMLTEAAKYYREAQGGDPSKLTFTGQEINPDIAAIARMNLSLHTLNGEIERGDSLASPGFTDGDDLERFDRVLANFPFSADWAKDDLQDDQYGRFDWHTKLPRADRGDYAFIMHIAEQLKEPDCGDESGGKAAIVIPHGVLFRKHEQRYRQPMLENDLVEAIVGLPENLFQNNSIPSAILVLNTDKPADREGEVQFIHAADEAFYEELSNQNELTDDGLDHIVENFDDWTTEERVSRTVGIEEIEENDFNLNIALYVDTTEPEEDIDVNEELAELRELQAEREEIESRMTEHMEALQYE”, the protein production result is recorded as “failed”.

On to “MSLTQAQGAQQYVNINPPMPSDTPGKIEVLEFFAYTCPHCAAIEPMVEDWAKTAPQDVVLKQVPIAFNAGMKPLQQLYYTLQALERPDLHPKVFTAIHTERKRLFDKKAMGEWAASQGVDRAKFDSVFDSFSVQTQVQRASQLAEAAHIDGTPAFAVGGRYMTSPVLAGNDYAGALKVVDQLIVQSREGHHHHHH”, for which the protein production result was “not failed”.

For the sequence “MSLTQIVNPIIYPSRTIPRRFTAISPFKTLSPQFSRHPPHALSRRLFLPSVSSIWDAITGGGDSNPREAIAAVRRGMQLFRQGDVAGSVAEFDRAIILDPRQKAYLWQRGLSLYYVDRFEEGAEQFRIDVAQNPNDTEESIWCFICEARLHGVDVARTQFLEVGRDSRPVMREAYNLFKNGGDPEKLVNDFSSGQASEYFYASLYAGLYYEAEGKSENAKFHLTAACGSPYGQRSDDYMASLAKVHCLCRNWSSGIL”, the protein production entry is listed as “failed”.

Regarding “MSLTVKDILDAIQSPDSTPADIAALPLPESYRAITVHKDETEMFAGLETRDKDPRKSIHLDDVPVPELGPGEALVAVMASSVNYNSVWTSIFEPLSTFGFLERYGRVSDLAKRHDLPYHVIGSDLAGVVLRTGPGVNAWQAGDEVVAHCLSVELESSDGHNDTMLDPEQRIWGFETNFGGLAEIALVKSNQLMPKPDHLSWEEAAAPGLVNSTAYRQLVSRNGAGMKQGDNVLIWGASGGLGSYATQFALAGGANPICVVSSPQKAEICRAMGAEAIIDRNAEGYRFWKDENTQDPKEWKRFGKRIRELTGGEDIDIVFEHPGRETFGASVFVTRKGGTITTCASTSGYMHEYDNRYLWMSLKRIIGSHFANYREAWEANRLIAKGRIHPTLSKVYSLEDTGQAAYDVHRNLHQGKVGVLCLAPEEGLGVRDREKRAQHLDAINRFRNEGHHHHHH”, the protein production entry is “not failed”.

For the sequence “MSLVSVIILASGNSQRMGQNKLFLKYQGKTFLEHTLTLVNQLDVLERILVVSPENQPAFPLPKNIQLILNHQWQEGQSSSIRLGTEQARGAGYLYLPSDQPLLTPKMLQLVLDKCQRNKIVVPLQKDGCPSSPVLFGNQFRQELLTLTGEKGGRMIYERFPEAVQMLRIATPGRLKDIDTPEEYQKLIQETNSLEHHHHHH”, the protein production result is given as “failed”.

With “MSLVVCQPQINESFYQKDDMGGLSFLQSMSDITSIAQTKEDKAYVHPMEKRSVSKLNEKSLEMCTESLGTETGSESGDELSLLAFEATTTPRAPPRQLKPQEDTNLPDKTPPMSRNNSFPPPIKFVEDSKYNRMVRWLGEDGRIVVQAIRVSSPPSCFVSERGEGRLRLILTSESSLLSHNHEEEEEEETEEGIDEETSENLEGKSGNKKFSRFSRRCKENGREPKPMLTWKQQQFWVAT”, the protein production result is given as “failed”.

Take “MSLYKLYSMQRSGNSYKVRLALALLDAPYRAVEVDILRGESRTPDFLAKNPSGQVPLLETAPGRYLAESNAILWYLAVGTSLAPDTRMDRAEALQWMFFEQHALEPNIGSAYFWLCLVKGGRDLQTHALEDWLERGYAALQVMENHLKTNDYFAAGQLTIADIALYGYTHVADQCDFDLSTFPAVNAWLRRVEQTPGFITMDWTPETIAADPTSFAAEGHHHHHH”: the protein production entry was “not failed”.

On to “MSLYNYVLFDLDGTLTDSAEGITKSVKYSLNKFDIQVEDLSSLNKFVGPPLKTSFMEYYNFDEETATVAIDYYRDYFKAKGMFENKVYDGIEALLSSLKDYGFHLVVATSKPTVFSKQILEHFKLAFYFDAIVGSSLDGKLSTKEDVIRYAMESLNIKSDDAIMIGDREYDVIGALKNNLPSIGVTYGFGSYEELKNAGANYIVNSVDELHKKILELREGHHHHHH”, for which the protein production entry is “not failed”.

Turning to “MSMLANFDFASFFAVAAAIVIGLYVVLDGFDLGVGILFPFAPRVSDRDAMMATLEPFWDGNETWLVLGGMVLLGAFPLAFAILLPAFYVPLCLMLFGLVIRGVAFEFRSQGGRFQIVWSATFAAGSFIAAFCQGAVLGAFVGRSITVSDGAFAGGPFDWLGLFSIATGLGVVAAYGLLGACWLVWKTSGSTQNFGRELMLPTLLCAGAAIVLISVWTPFAKPQIAERWFAWPDALLLAPLPIIAVLAGIGILLTRWSEREWAPLALSLLLFVTSLAGLGASVWPEAIPGVMTIWQASSMHRTQVIVAGAVVIIGPIILAYIGYGYWLFRGKTKPVPEFPPR”, the protein production result was “failed”.

Consider “MSMLKRTLVLLGDTPSSLAARAYAFRLVQQTGTDLTGLAGVDLGEIEAPMLGGIGMSAYQTQLQTELKRQADATRERLQAAFSDECRSRSIACAALSFEGDAADGFRLATETRDLAIAGHDTGFGGSQEPLSAMIAKLVVRTPRPLIVCPDELPAGDAVLIAYDGSLPAMRALQVFALLGLGDGKQICVLAIDRDEAAAVRKANAAAEFLKIHGHAAQAVPSSSGDDPADLIRSAVAERNIGTVVMGAYGNRGFREALFGSTTDALVDTPPCALFLYH”, for which the protein production entry was “failed”.

“MSMSAQGKKAAESTTSTRPAKLDKQAYEAELKRLQAELVDMQQWVVETGARVVIIMEGRDAAGKGSAIKRMTQYLNPRTCRIEALPAPNSREQGQWYFQRYVEKLPTAGEIVIFDRSWYNRAGVERVMGFCTSQEYRRFLHQAPIFERLLVEDGIMLRKYWFSVSDEEQIARFKSRRNDPLRRWKLSPMDLQSITRWEDYSRAKDEMFVHTDIPSAPWYTVESEDKKRSRINVISHLLSTIPYEKIDRP”: the protein production result is given as “failed”.

For the sequence “MSNAFEYLRTYVESTTETDAAVARAREDAAEFGLPAPDEMTGQLLTTLAATTNGNGSTGAIAITPAAGLVGLYILNGLADNTTLTCIDPESEHQRQAKALFREAGYSPSRVRFLLSRPLDVMSRLANDSYQLVFGQVSPMDLKALVDAAWPLLRRGGALVLADALLDGTIADQTRKDRDTQAARDADEYIRSIEGAHVARLPLGAGLTVVTKALEHHHHHH”, the protein production entry was “not failed”.

Regarding “MSNDLINGSILHCLETASLGMPLEVWKTRMCVYRNENTIKSFKNIYNKGLGQFYAGFYAKLIESGSKGAVLLLSKEQIIKVCNDMNINKTTSGFIGGACGGICQSLVMTPCTFFITASIDKKINYKEKLIHIFKNTGITTLYKGNTAMCLRQGTNWASRQGITEWIRNIVMERKKNRKNKNDDINNVKGMIFSGNDITTDKIKHNNNNNNNNNTSQSKSLELTTSEELFCGIVGGALSVWNNPFDVVRVYMQNNANKNIKLTFFQSFIHLYKEGGILYLYKGVIPRCFLCIWQTLFMVTGIKILNKYF”, the protein production result was “failed”.

“MSNDVDLIKRLGPSAMDQIMLYLAFSAMRTSGHRHGAFLDAAATAAKCAIYMTYLEQGQNLRMTGHLHHLEPKRVKAIVEEVRQALTEGKLLKMLGSQEPRYLIQFPYVWMEKYPWRPGRSRIPGTSLTSEEKRQIEQKLPSNLPDAHLITSFEFLELIEFLHKRSQEDLPKEHQMPLSEALAEHIKRRLLYSGTVTRIDSPWGMPFYALTRPFYAPADDQERTYIMVEDTARFFRMMRDWAEKRPNTMRVLEELDILPEKMQQAKDELDEIIRAWADKYHQDDGVPVVLQMVFGKKED”: the protein production entry is listed as “not failed”.

On to “MSNEDSLPPFTLFGLDDVENYGLVTEADNSLPLDIHNQVFQLVEKGNQSFKESRFEEAISSYSKANSIKPLDPIVLGNRSAAYIRFGQYLKQRSASISEYKPLNGFDMSMLGELALKDADKLMSLQSSLVKSYITKACALMLLERYEVARDTILSGLQIDPFSGPLRSNLQELEKVMPNSMRKTHGMAERSDDFDCTVCLKLLYEPATTPCGHTFCRSCLFQSMDRGNKCPLCRTVIFMTPRTCAVSVTLNNIIEKNFPEEYAERKSEQDTLVHLGNESMPLFVMDVIIPCQKLSLHIFEPRYRLMVRRIMEGNHRMGMVALDSATGSPVDVACEVEITECDPLPDGRFVLELESHRRCRIVKAWDQDGYRVAEVEWVKDIPPQSEQGKADLRELTTSAASFARSWLDRAKEAARQGDRRRLEILLNVESMIPTPQDPERFSFWLATLTDRRPSERLELLRLQDTGEVLDYRLVQIARQISLFHQSLSFDC”, for which the protein production result is recorded as “failed”.

Take “MSNEFEPYNKEIKKIEFTTWKYQASKDAEHSPSDEEELINELEVVKQEAFQKGYADGFQQAQEEINAIKAELSKWLDLIQKPVQILDEQLTQEIIQTIIWLSQHCVAVELSVNPDKLNDLLNKIKGELPSLTGKKSISMHPDDVRWIKEVFSESNIPGLHELLVADPALNRGDFYLQGEHSELDGRIQTRFTTLFNEYINKENIIP”: the protein production result was “failed”.

Consider “MSNEHKASIDGGQWAQCVRERGWLWDVAQGVEVQSAPTLILAHGAGAPMDSGFMNDIAVRLAGHGVNVLRFEFPYMAQRRLDGGKRPPNPAPRLLECWREVHALVRPYVTGVLALGGKSMGGRMASLLADELQADALVCLGYPFYAAGKPEKPRVAHLADLSVPSLIVQGERDALGNRQAVEAYTLAPGIELYWLTAADHDLKPLKASGFSHEQHLESAALKVAAFLKALS”, for which the protein production result is “failed”.

In the case of “MSNELPAVICLVGPTGAGKTAAALHLAERFAGTVINADSRQVYRDFPIITAQPTAEEQAQCPHRLYGFLETEARMSAGVWGDHATAAIDEALAQGRLPLLVGGTGMYVRALLDGIAAIPAIPRDIHVRWQERCAAEGPQRLHAMLCDIDAEYAARIHPNDRQRVTRALEVHEHTGRTFSEWHRSAMPAPRYRALRIGFAATLDALTPRLAHRIDLMLAAGALDEARRARVHCDDPSAPGWSGIGCAETYAHLVGSLDYEAMRHVWLHNTRAYAKRQLTWFRADTRLTWYAPDDVEGIALGVASFLRGGA”, the protein production result was “failed”.

In the case of “MSNHSSSIPELSDNGIRYYQTYNESLSLWPVRCKSFYISTRFGQTHVIASGPEDAPPLVLLHGALFSSTMWYPNIADWSSKYRTYAVDIIGDKNKSIPENVSGTRTDYANWLLDVFDNLGIEKSHMIGLSLGGLHTMNFLLRMPERVKSAAILSPAETFLPFHHDFYKYALGLTASNGVETFLNWMMNDQNVLHPIFVKQFKAGVMWQDGSRNPNPNADGFPYVFTDEELRSARVPILLLLGEHEVIYDPHSALHRASSFVPDIEAEVIKNAGHVLSMEQPTYVNERVMRFFNA”, the protein production result was “not failed”.
